These results are taken from publication PMC9482650, “Quantitative fragmentomics allow affinity mapping of interactomes” (Nature Communications, 2022).

Among the targets are MAGI1_5, Q96QZ7; GIPC3, Q8TF64; RIMS2, Q9UQ26; GRIP2_2, Q9C0E4; PARD3_1, Q8TEW0; MAST3, O60307; RGS3, P49796-9; MAGI3_5, Q5TCQ9; PDZRN4_2, Q6ZMN7; MAGIX, Q9H6Y5; DLG2_1, Q15700; Inadl_7, Q8NI35; PTPN13_2, Q12923.
Holding throughout (test): holdup assay
What all share (set-up): key: below the threshold = too weak to quantify, mostly under pKd 3.1 to 4

The next assay deals with T1, MPDZ_2, O75970.
T1 sequence (O75970 252-347, limits assumed, looked up): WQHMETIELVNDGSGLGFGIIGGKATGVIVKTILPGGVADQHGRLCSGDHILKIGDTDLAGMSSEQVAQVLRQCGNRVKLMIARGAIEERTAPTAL

A further assay concerns the target T2, TJP3_2, O95049.
T2 sequence (O95049 190-282, limits assumed, looked up): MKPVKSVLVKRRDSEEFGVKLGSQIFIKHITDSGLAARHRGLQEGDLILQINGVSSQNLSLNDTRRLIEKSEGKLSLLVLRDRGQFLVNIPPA

The next assay concerns the target T3, SIPA1L3, O60292.
T3 sequence (O60292 961-1052, limits assumed, looked up): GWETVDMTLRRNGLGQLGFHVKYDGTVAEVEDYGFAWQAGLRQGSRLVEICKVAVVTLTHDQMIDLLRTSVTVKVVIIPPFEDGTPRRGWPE

The next assay addresses T4, GRIP1_1, Q9Y3R0.
T4 sequence (Q9Y3R0 48-146, limits assumed, looked up): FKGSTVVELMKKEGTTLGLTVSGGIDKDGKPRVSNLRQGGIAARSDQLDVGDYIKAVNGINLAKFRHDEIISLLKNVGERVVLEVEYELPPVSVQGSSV

The next assay has as its target T5, SHROOM3, Q8TF72.
T5 sequence (Q8TF72 20-120, limits assumed, looked up): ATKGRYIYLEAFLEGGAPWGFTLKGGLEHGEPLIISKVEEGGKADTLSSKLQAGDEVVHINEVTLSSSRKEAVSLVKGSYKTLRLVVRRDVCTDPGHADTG

The next assay deals with T6, CNKSR1, Q969H4.
T6 sequence (Q969H4 191-295, limits assumed, looked up): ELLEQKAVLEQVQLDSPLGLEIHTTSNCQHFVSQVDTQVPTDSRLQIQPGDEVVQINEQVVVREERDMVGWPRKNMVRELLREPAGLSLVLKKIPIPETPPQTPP

For a further assay, the target named is T7, PDZD11, Q5EBL8.
T7 sequence (Q5EBL8 42-139, limits assumed, looked up): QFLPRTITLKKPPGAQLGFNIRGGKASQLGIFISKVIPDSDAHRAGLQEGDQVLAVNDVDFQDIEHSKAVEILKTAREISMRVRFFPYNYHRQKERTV

The target of the next assay is T8, MAGI2_1, Q86UL8.
T8 sequence (Q86UL8 12-111, limits assumed, looked up): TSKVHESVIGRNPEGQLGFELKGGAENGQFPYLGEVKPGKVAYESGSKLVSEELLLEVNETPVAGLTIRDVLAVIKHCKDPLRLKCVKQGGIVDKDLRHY

Another assay has as its target T9, PDZD4, Q76G19.
T9 sequence (Q76G19 125-224, limits assumed, looked up): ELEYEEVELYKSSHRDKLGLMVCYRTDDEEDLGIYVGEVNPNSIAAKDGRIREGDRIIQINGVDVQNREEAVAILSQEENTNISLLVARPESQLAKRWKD

Another assay concerns the target T10, USH1C_2, Q9Y6N9.
T10 sequence (Q9Y6N9 206-303, limits assumed, looked up): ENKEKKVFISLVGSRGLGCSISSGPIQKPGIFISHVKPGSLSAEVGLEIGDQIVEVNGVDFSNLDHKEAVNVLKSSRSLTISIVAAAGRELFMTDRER

Another assay addresses T11, RGS12, O14924.
T11 sequence (O14924 17-108, limits assumed, looked up): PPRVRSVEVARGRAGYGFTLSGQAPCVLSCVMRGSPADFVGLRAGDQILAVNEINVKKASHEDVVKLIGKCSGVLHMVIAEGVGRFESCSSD

In a further assay the target is T12, PDZD2_4, O15018.
T12 sequence (O15018 723-823, limits assumed, looked up): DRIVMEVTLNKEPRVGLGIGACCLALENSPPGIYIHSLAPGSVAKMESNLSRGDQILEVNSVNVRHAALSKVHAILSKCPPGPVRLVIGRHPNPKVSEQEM
The conditions noted are these: plain residues with an end cap or a label only (N-terminal biotin on a linker: ttds).

Where [1] appears, read: plain residues with an end cap or a label only (N-terminal biotin on a linker: none).
[2] abbreviates: plain residues with an end cap or a label only (N-terminal biotin on a linker: ttds).

GRIP2_2, Q9C0E4, sequence (Q9C0E4 137-245): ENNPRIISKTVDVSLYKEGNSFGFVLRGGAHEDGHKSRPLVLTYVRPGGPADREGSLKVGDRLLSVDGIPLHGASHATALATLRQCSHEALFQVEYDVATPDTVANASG
PDZRN4_2, Q6ZMN7, sequence (Q6ZMN7 389-498): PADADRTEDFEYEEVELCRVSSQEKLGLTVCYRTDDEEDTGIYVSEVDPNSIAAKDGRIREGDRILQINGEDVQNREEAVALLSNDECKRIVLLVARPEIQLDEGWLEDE
PARD3_1, Q8TEW0, sequence (Q8TEW0 264-372): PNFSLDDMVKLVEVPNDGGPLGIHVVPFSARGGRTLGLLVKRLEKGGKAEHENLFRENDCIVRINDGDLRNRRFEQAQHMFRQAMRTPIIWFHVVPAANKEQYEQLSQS
MAGIX, Q9H6Y5, sequence (Q9H6Y5 118-211): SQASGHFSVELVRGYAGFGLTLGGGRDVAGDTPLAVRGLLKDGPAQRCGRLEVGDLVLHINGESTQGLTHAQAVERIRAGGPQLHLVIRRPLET
GIPC3, Q8TF64, sequence (Q8TF64 107-202): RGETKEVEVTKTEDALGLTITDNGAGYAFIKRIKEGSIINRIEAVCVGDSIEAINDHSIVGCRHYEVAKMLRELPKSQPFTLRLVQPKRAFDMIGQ
MAST3, O60307, sequence (O60307 945-1048): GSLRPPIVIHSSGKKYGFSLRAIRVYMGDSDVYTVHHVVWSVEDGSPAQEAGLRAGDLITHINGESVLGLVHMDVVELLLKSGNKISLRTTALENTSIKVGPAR
RIMS2, Q9UQ26, sequence (Q9UQ26 637-758): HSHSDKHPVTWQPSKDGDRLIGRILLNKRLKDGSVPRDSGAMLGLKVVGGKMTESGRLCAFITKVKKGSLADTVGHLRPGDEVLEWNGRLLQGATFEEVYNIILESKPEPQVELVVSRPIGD
PTPN13_2, Q12923, sequence (Q12923 1363-1462): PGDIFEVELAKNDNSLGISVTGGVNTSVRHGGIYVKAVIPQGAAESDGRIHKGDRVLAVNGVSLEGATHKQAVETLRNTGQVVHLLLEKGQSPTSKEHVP
RGS3, P49796-9, sequence (P49796 other isoform, or with tags, fused parts or gaps): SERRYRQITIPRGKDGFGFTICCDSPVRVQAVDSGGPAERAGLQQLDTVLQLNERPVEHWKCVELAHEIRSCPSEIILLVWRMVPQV
Inadl_7, Q8NI35, sequence (Q8NI35 1219-1332): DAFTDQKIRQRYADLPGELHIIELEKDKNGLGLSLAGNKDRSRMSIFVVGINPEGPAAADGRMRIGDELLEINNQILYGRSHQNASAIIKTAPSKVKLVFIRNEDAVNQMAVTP
MAGI1_5, Q96QZ7, sequence (Q96QZ7 986-1098): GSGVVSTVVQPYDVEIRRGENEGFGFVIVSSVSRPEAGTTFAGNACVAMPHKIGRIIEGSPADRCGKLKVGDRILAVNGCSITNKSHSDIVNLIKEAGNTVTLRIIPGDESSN
MAGI3_5, Q5TCQ9, sequence (Q5TCQ9 847-941): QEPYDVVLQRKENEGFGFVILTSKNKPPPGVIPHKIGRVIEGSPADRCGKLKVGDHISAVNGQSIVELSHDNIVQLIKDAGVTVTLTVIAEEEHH

One may read the pKd as the negative decadic logarithm of the Kd, by convention in mol/L. For the molecule NLNSSRVPDLLV [SARS-CoV2-E, P0DTC4], the pKd result with MPDZ_2, O75970 (setting [1]) is given as “below the threshold”; with MAGI1_5, Q96QZ7 (setting [1]), “below the threshold”; in the assay with GIPC3, Q8TF64 (setting [1]) it was “below the threshold”; in the assay with TJP3_2, O95049 (setting [1]), “below the threshold”; in the assay with SIPA1L3, O60292 (setting [1]), “below the threshold”; in the assay with RIMS2, Q9UQ26 (setting [1]), “below the threshold”. Also, the pKd result is given as “below the threshold” with GRIP1_1, Q9Y3R0 (setting [1]); “below the threshold” with GRIP2_2, Q9C0E4 (setting [1]); “below the threshold” with PARD3_1, Q8TEW0 (setting [1]); “below the threshold” with MAST3, O60307 (setting [1]); “below the threshold” in the assay with SHROOM3, Q8TF72 (setting [1]); “below the threshold” with RGS3, P49796-9 (setting [1]). In addition, the pKd entry with CNKSR1, Q969H4 (setting [1]) is listed as “below the threshold”; with PDZD11, Q5EBL8 (setting [1]) it was “below the threshold”; in the assay with MAGI2_1, Q86UL8 (setting [1]) it was “below the threshold”; in the assay with MAGI3_5, Q5TCQ9 (setting [1]), “below the threshold”; with PDZD4, Q76G19 (setting [1]) it was “below the threshold”; in the assay with PDZRN4_2, Q6ZMN7 (setting [1]), “below the threshold”. In addition, the pKd entry with MAGIX, Q9H6Y5 (setting [1]) is on record as “below the threshold”; in the assay with DLG2_1, Q15700 (setting [1]) it was “below the threshold”; with USH1C_2, Q9Y6N9 (setting [1]), “below the threshold”; with Inadl_7, Q8NI35 (setting [1]) it was “below the threshold”; with RGS12, O14924 (setting [1]) it was “below the threshold”; in the assay with PTPN13_2, Q12923 (setting [1]), “below the threshold”.
As for SKPTRRETEV [HPV35-E6, P27228], the pKd entry is “below the threshold” with MPDZ_2, O75970 (setting [2]); 4.43 with MAGI1_5, Q96QZ7 (setting [2]); “below the threshold” in the assay with SIPA1L3, O60292 (setting [2]); “below the threshold” in the assay with RIMS2, Q9UQ26 (setting [2]); “below the threshold” in the assay with GRIP1_1, Q9Y3R0 (setting [2]); “below the threshold” with PARD3_1, Q8TEW0 (setting [2]). The pKd entry is recorded as “below the threshold” with MAST3, O60307 (setting [2]); “below the threshold” in the assay with SHROOM3, Q8TF72 (setting [2]); “below the threshold” with PDZD2_4, O15018; “below the threshold” with RGS3, P49796-9 (setting [2]); “below the threshold” with PDZD11, Q5EBL8 (setting [2]); “below the threshold” with MAGI3_5, Q5TCQ9 (setting [2]). Further, the pKd with PDZD4, Q76G19 (setting [2]) was 3.55; with PDZRN4_2, Q6ZMN7 (setting [2]) it was “below the threshold”; with MAGIX, Q9H6Y5 (setting [2]), 3.56; with DLG2_1, Q15700 (setting [2]), 4.91; with Inadl_7, Q8NI35 (setting [2]), “below the threshold”; in the assay with RGS12, O14924 (setting [2]), “below the threshold”. The pKd entry with PTPN13_2, Q12923 (setting [2]) was “below the threshold”.
Take SGSRPSATVV [HPV73-E6, Q82005]: the pKd with MAGI1_5, Q96QZ7 (setting [2]) is 4.11; with GIPC3, Q8TF64 (setting [2]), “below the threshold”; in the assay with TJP3_2, O95049 (setting [2]), “below the threshold”; with SIPA1L3, O60292 (setting [2]) it was 4.17; with RIMS2, Q9UQ26 (setting [2]), “below the threshold”; in the assay with GRIP1_1, Q9Y3R0 (setting [2]), “below the threshold”. Moreover, the pKd entry in the assay with GRIP2_2, Q9C0E4 (setting [2]) was “below the threshold”; with PARD3_1, Q8TEW0 (setting [2]), “below the threshold”; in the assay with MAST3, O60307 (setting [2]), “below the threshold”; with SHROOM3, Q8TF72 (setting [2]), “below the threshold”; in the assay with PDZD2_4, O15018, 4.26; with RGS3, P49796-9 (setting [2]), “below the threshold”. In addition, the pKd entry with CNKSR1, Q969H4 (setting [2]) is recorded as “below the threshold”; in the assay with PDZD11, Q5EBL8 (setting [2]), “below the threshold”; in the assay with MAGI2_1, Q86UL8 (setting [2]), “below the threshold”; with MAGI3_5, Q5TCQ9 (setting [2]) it was “below the threshold”; with PDZD4, Q76G19 (setting [2]), “below the threshold”; with PDZRN4_2, Q6ZMN7 (setting [2]) it was “below the threshold”. The pKd entry is reported as “below the threshold” in the assay with MAGIX, Q9H6Y5 (setting [2]); “below the threshold” with DLG2_1, Q15700 (setting [2]); “below the threshold” in the assay with USH1C_2, Q9Y6N9 (setting [2]); “below the threshold” in the assay with Inadl_7, Q8NI35 (setting [2]); “below the threshold” with RGS12, O14924 (setting [2]); “below the threshold” in the assay with PTPN13_2, Q12923 (setting [2]).
Consider QRQARSETLV [HPV59-E6, Q81964], for which the pKd result with MPDZ_2, O75970 (setting [2]) is “below the threshold”; with MAGI1_5, Q96QZ7 (setting [2]), 5.41; in the assay with GIPC3, Q8TF64 (setting [2]), “below the threshold”; with TJP3_2, O95049 (setting [2]), “below the threshold”; with SIPA1L3, O60292 (setting [2]), “below the threshold”; with RIMS2, Q9UQ26 (setting [2]) it was “below the threshold”. The pKd entry in the assay with GRIP1_1, Q9Y3R0 (setting [2]) was “below the threshold”; with GRIP2_2, Q9C0E4 (setting [2]), “below the threshold”; with PARD3_1, Q8TEW0 (setting [2]) it was “below the threshold”; with MAST3, O60307 (setting [2]) it was “below the threshold”; in the assay with SHROOM3, Q8TF72 (setting [2]), “below the threshold”; in the assay with PDZD2_4, O15018, “below the threshold”. The pKd result in the assay with RGS3, P49796-9 (setting [2]) was “below the threshold”; with CNKSR1, Q969H4 (setting [2]), “below the threshold”; in the assay with PDZD11, Q5EBL8 (setting [2]), “below the threshold”; with MAGI2_1, Q86UL8 (setting [2]), “below the threshold”; with MAGI3_5, Q5TCQ9 (setting [2]) it was 4.62; in the assay with PDZD4, Q76G19 (setting [2]), “below the threshold”. For the same molecule, the negative logarithm of the Kd (pKd) entry with PDZRN4_2, Q6ZMN7 (setting [2]) was “below the threshold”; in the assay with MAGIX, Q9H6Y5 (setting [2]), “below the threshold”; with DLG2_1, Q15700 (setting [2]) it was 4.52; in the assay with USH1C_2, Q9Y6N9 (setting [2]), “below the threshold”; in the assay with Inadl_7, Q8NI35 (setting [2]), “below the threshold”; with RGS12, O14924 (setting [2]), “below the threshold”. Moreover, the pKd result with PTPN13_2, Q12923 (setting [2]) is recorded as “below the threshold”.
